Stoichiometry N data for 2 substances are collected here from publication doi:10.1101/2025.09.13.676036.

The target of assay [1] is Caldanaerovirga acetigignens double ferritin-like protein (Caldanaerovirga acetigignens). Description: SEC-MALS. On the technique in general: SEC sorts molecules by how far they enter the pores of the column.
The target in assay [2] is Thermocrinis minervae double ferritin-like protein (Thermocrinis minervae). The assay can be described thus: SEC-MALS.
The target is the same in assay [3]. The assay can be described thus: SEC-SAXS.

Substance “Caldanaerovirga acetigignens double ferritin-like protein (enzyme)” showed a stoichiometry N in assay [1] of 2.
In the case of “Thermocrinis minervae double ferritin-like protein (enzyme)”, the stoichiometry N in assay [2] and in assay [3] was 2 each time.

Usually stoichiometry N stands for the number of molecules, sites or subunits per partner or assembly.
